Source: the Immune Epitope Database (IEDB)
pKd: −log10 of the molar value. One block for each sequence: values may come before it.

Legend:
[1] = target: HLA-A*01:01; assay: IEDB peptide-MHC binding, purified MHC/direct/fluorescence; filed as Kd, often an IC50 or EC50 that approximates it; ≥ and ≤ were set here for values at or beyond the usual limits of such assays
[2] = target: HLA-A*02:01; assay: as above
[3] = target: HLA-A*03:01; assay: as above
[4] = target: HLA-A*11:01; assay: as above
[5] = target: HLA-A*26:01; assay: as above; settings: source organism: Influenza A virus(A/swine/Shandong/fNY/2003(H9N2))
[6] = target: HLA-A*31:01; assay: as above
[7] = target: HLA-A*69:01; assay: as above
[8] = target: HLA-B*07:02; assay: as above
[9] = target: HLA-B*08:01; assay: as above; settings: source organism: Influenza A virus(A/swine/Shandong/fNY/2003(H9N2))
[10] = target: HLA-B*15:01; assay: as above
[11] = target: HLA-B*15:17; assay: as above
[12] = target: HLA-B*18:01; assay: as above
[13] = target: HLA-B*27:05; assay: as above
[14] = target: HLA-B*40:01; assay: as above; settings: source organism: Influenza A virus (A/SW/MN/12883/00(H1N2))
[15] = target: HLA-B*46:01; assay: as above
[16] = target: HLA-B*48:01; assay: as above
[17] = target: HLA-B*57:01; assay: as above
[18] = target: HLA-B*58:01; assay: as above
[19] = target: HLA-B*15:09; assay: IEDB peptide-MHC binding, purified MHC/competitive/fluorescence; filed as Kd, often an IC50 or EC50 that approximates it; ≥ and ≤ were set here for values at or beyond the usual limits of such assays
[20] = target: HLA-B*51:01; assay: as above; settings: source organism: Influenza A virus H3N2
[21] = target: HLA-C*03:03; assay: IEDB peptide-MHC binding, purified MHC/direct/fluorescence; filed as Kd, often an IC50 or EC50 that approximates it; ≥ and ≤ were set here for values at or beyond the usual limits of such assays; settings: source organism: Pan troglodytes
[22] = target: HLA-C*08:02; assay: as above
[23] = target: HLA-B*15:42; assay: IEDB peptide-MHC binding, purified MHC/competitive/fluorescence; filed as Kd, often an IC50 or EC50 that approximates it; ≥ and ≤ were set here for values at or beyond the usual limits of such assays
[24] = target: HLA-B*45:06; assay: as above
[25] = target: HLA-B*83:01; assay: as above
[26] = target: HLA-C*14:02; assay: as above
[27] = target: HLA-C*04:01; assay: IEDB peptide-MHC binding, purified MHC/direct/fluorescence; filed as Kd, often an IC50 or EC50 that approximates it; ≥ and ≤ were set here for values at or beyond the usual limits of such assays
[28] = target: HLA-A*02:01; assay: IEDB peptide-MHC binding, purified MHC/competitive/fluorescence; filed as Kd, often an IC50 or EC50 that approximates it; ≥ and ≤ were set here for values at or beyond the usual limits of such assays; settings: source organism: Escherichia coli 536
[29] = target: HLA-A*26:02; assay: as above; settings: source organism: Escherichia coli 536
[30] = target: HLA-A*68:02; assay: as above; settings: source organism: Escherichia coli 536
[31] = target: HLA-B*15:17; assay: as above; settings: source organism: Escherichia coli 536
[32] = target: HLA-B*39:01; assay: as above
[33] = target: HLA-C*06:02; assay: IEDB peptide-MHC binding, purified MHC/direct/fluorescence; filed as Kd, often an IC50 or EC50 that approximates it; ≥ and ≤ were set here for values at or beyond the usual limits of such assays; settings: source organism: Brucella abortus S19
[34] = target: HLA-C*12:03; assay: as above; settings: source organism: Brucella abortus S19
[35] = target: HLA-C*15:02; assay: as above; settings: source organism: Brucella abortus S19
[36] = target: HLA-B*15:02; assay: IEDB peptide-MHC binding, purified MHC/competitive/fluorescence; filed as Kd, often an IC50 or EC50 that approximates it; ≥ and ≤ were set here for values at or beyond the usual limits of such assays; settings: source organism: Brucella abortus S19
[37] = target: HLA-B*46:01; assay: as above; settings: source organism: Brucella abortus S19
[38] = target: HLA-A*23:01; assay: IEDB peptide-MHC binding, purified MHC/direct/fluorescence; filed as Kd, often an IC50 or EC50 that approximates it; ≥ and ≤ were set here for values at or beyond the usual limits of such assays; settings: source organism: Vibrio vulnificus YJ016
[39] = target: HLA-A*24:02; assay: as above; settings: source organism: Vibrio vulnificus YJ016
[40] = target: HLA-A*24:03; assay: as above; settings: source organism: Vibrio vulnificus YJ016
[41] = target: HLA-A*26:03; assay: as above; settings: source organism: Vibrio vulnificus YJ016
[42] = target: HLA-A*68:02; assay: as above; settings: source organism: Vibrio vulnificus YJ016
[43] = target: HLA-B*08:02; assay: as above; settings: source organism: Vibrio vulnificus YJ016
[44] = target: HLA-A*02:06; assay: IEDB peptide-MHC binding, purified MHC/competitive/fluorescence; filed as Kd, often an IC50 or EC50 that approximates it; ≥ and ≤ were set here for values at or beyond the usual limits of such assays; settings: source organism: Vibrio vulnificus YJ016
[45] = target: HLA-B*08:01; assay: as above; settings: source organism: Vibrio vulnificus YJ016
[46] = target: HLA-B*48:01; assay: as above; settings: source organism: Cryptosporidium parvum Iowa II
[47] = source organism: Influenza A virus (A/SW/MN/12883/00(H1N2))
[48] = source organism: Pan troglodytes
[49] = source organism: Escherichia coli O157:H7
[50] = source organism: Escherichia coli 536
[51] = source organism: Brucella abortus S19
[52] = source organism: Vibrio vulnificus YJ016
[53] = source organism: human gammaherpesvirus 4

Sequence: FPNEVGARI
pKd [1, 47]: ≤ 4.70 | pKd [2, 47]: ≤ 4.70 | pKd [3, 47]: ≤ 4.70 | pKd [4, 47]: ≤ 4.70 | pKd [5]: ≤ 4.70 | pKd [6, 47]: ≤ 4.70 | pKd [7, 47]: 8.42 | pKd [8, 47]: 7.18 | pKd [9]: 5.52 | pKd [10, 47]: ≤ 4.70 | pKd [11, 47]: ≤ 4.70 | pKd [12, 47]: ≤ 4.70 | pKd [13, 47]: ≤ 4.70 | pKd [14]: ≤ 4.70 | pKd [15, 47]: ≤ 4.70 | pKd [16, 47]: ≤ 4.70 | pKd [17, 47]: ≤ 4.70 | pKd [18, 47]: ≤ 4.70 | pKd ([19]; source organism: Influenza A virus H3N2): 5.95 | pKd [20]: 6.45

pKd [21]: ≤ 4.70 | pKd [22, 48]: ≤ 4.70 | pKd [23, 48]: ≤ 5.30 | pKd [24, 48]: ≤ 5.30 | pKd [25, 48]: ≤ 5.30 | pKd [26, 48]: 7.11
Sequence: VMPPRTLLL

Sequence: WYDWQQVPF
pKd ([27]; source organism: West Nile virus): 8.15

Sequence: IQNDLITEF
pKd ([27]; source organism: Vaccinia virus Copenhagen): ≤ 4.70

pKd [1, 49]: ≤ 4.70 | pKd [4, 49]: ≤ 4.70 | pKd [6, 49]: ≤ 4.70 | pKd [7, 49]: ≤ 4.70 | pKd [8, 49]: 6.83 | pKd [10, 49]: 7.72 | pKd [13, 49]: ≤ 4.70 | pKd [15, 49]: 5.87 | pKd [16, 49]: ≤ 4.70 | pKd [17, 49]: ≤ 4.70 | pKd [28]: ≤ 4.70 | pKd [29]: ≤ 4.70 | pKd [30]: ≤ 4.70 | pKd [19, 50]: ≤ 4.70 | pKd [31]: 6.67 | pKd [32, 50]: ≤ 4.70
Sequence: VMAASGAPF

Sequence: YMRERLSDF
pKd [33]: 6.95 | pKd [34]: 7.03 | pKd [35]: ≤ 4.70 | pKd [36]: 6.63 | pKd [23, 51]: ≤ 5.30 | pKd [24, 51]: ≤ 5.30 | pKd [37]: 7.51 | pKd [25, 51]: ≤ 5.30 | pKd [26, 51]: 7.74

Sequence: WHQARFEEL
pKd [1, 52]: ≤ 4.70 | pKd [2, 52]: ≤ 4.70 | pKd [3, 52]: ≤ 4.70 | pKd [4, 52]: ≤ 4.70 | pKd [38]: 5.77 | pKd [39]: 5.06 | pKd [40]: 6.84 | pKd [41]: ≤ 4.70 | pKd [6, 52]: ≤ 4.70 | pKd [42]: ≤ 4.70 | pKd [7, 52]: ≤ 4.70 | pKd [8, 52]: ≤ 4.70 | pKd [43]: ≤ 4.70 | pKd [10, 52]: ≤ 4.70 | pKd [11, 52]: ≤ 4.70 | pKd [12, 52]: ≤ 4.70 | pKd [13, 52]: ≤ 4.70 | pKd [17, 52]: ≤ 4.70 | pKd [18, 52]: ≤ 4.70 | pKd [44]: ≤ 4.70 | pKd [45]: ≤ 4.70 | pKd [19, 52]: 7.64 | pKd [32, 52]: 7.75

Sequence: IQNEIMKPL
pKd [46]: 6.30

Sequence: RSDEYVAYY
pKd [27, 53]: ≤ 4.70 | pKd [22, 53]: 6.32
